Laboratory results: the supplement of paper PMC10065799, “High-throughput profiling of sequence recognition by tyrosine kinases and SH2 domains using bacterial peptide display” (eLife, 2023)

Legend:
SHP2-C SH2 = test: SH2 binding enrichment of the phosphorylated peptide, bacterial display (enrichment ratio); higher = better substrate or ligand; peptides without Tyr show the background
Grb2 SH2 = Grb2 SH2 (UniProt P62993); test: as above
c-Src SH2 = test: as above
Jak2 = Jak2 (UniProt O60674); test: phosphorylation enrichment, bacterial display (enrichment ratio); higher = better substrate or ligand; peptides without Tyr show the background
Jak2, sequence (O60674 whole entry, looked up): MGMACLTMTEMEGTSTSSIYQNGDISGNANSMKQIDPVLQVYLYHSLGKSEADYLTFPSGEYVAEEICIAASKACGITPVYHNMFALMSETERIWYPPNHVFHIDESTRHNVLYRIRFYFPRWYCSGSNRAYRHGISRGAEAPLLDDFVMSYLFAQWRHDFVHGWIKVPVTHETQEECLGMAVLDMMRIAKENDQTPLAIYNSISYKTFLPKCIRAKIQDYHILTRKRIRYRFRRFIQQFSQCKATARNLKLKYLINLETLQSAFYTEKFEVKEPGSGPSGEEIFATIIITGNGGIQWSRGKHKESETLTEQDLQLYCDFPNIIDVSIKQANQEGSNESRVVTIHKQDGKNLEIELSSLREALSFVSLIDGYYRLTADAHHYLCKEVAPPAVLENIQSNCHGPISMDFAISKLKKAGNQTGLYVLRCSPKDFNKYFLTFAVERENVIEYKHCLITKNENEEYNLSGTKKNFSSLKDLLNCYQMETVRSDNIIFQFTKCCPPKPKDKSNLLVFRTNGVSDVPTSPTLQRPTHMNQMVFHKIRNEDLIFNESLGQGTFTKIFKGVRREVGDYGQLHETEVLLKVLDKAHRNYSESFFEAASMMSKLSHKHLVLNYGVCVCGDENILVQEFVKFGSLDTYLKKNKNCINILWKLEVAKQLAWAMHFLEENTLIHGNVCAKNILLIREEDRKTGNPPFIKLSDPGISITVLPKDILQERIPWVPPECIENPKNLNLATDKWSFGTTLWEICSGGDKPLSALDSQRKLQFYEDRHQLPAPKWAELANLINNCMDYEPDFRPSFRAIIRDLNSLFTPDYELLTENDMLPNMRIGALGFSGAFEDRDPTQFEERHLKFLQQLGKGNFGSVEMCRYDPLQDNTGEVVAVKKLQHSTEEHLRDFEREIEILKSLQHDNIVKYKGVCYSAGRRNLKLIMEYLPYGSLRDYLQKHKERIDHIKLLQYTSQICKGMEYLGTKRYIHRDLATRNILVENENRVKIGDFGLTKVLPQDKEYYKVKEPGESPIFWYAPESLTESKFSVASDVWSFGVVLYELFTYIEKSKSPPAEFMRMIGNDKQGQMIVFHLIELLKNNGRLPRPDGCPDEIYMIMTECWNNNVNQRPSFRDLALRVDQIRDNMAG

Fyn = Fyn (UniProt P06241); test: as above
Fyn, sequence (P06241 whole entry, looked up): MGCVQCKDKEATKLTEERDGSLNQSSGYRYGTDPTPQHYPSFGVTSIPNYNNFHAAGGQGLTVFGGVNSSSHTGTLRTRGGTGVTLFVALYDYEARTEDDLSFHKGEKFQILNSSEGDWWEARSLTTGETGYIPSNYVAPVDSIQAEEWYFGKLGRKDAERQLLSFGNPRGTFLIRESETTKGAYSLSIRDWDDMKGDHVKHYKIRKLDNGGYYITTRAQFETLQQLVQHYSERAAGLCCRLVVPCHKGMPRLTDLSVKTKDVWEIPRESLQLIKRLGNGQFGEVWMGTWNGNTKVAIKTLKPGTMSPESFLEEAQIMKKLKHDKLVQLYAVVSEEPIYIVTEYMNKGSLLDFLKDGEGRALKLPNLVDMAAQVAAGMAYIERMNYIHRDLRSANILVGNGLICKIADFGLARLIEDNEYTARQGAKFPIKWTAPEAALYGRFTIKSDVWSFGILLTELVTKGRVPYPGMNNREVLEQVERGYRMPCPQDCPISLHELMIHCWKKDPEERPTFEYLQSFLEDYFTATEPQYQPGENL

c-Abl (mouse) = test: as above
AncSZ = test: as above
MERTK = MERTK (UniProt Q12866); test: as above
FGFR1 = FGFR1 (UniProt P11362); test: as above
FGFR1, sequence (P11362 whole entry, looked up): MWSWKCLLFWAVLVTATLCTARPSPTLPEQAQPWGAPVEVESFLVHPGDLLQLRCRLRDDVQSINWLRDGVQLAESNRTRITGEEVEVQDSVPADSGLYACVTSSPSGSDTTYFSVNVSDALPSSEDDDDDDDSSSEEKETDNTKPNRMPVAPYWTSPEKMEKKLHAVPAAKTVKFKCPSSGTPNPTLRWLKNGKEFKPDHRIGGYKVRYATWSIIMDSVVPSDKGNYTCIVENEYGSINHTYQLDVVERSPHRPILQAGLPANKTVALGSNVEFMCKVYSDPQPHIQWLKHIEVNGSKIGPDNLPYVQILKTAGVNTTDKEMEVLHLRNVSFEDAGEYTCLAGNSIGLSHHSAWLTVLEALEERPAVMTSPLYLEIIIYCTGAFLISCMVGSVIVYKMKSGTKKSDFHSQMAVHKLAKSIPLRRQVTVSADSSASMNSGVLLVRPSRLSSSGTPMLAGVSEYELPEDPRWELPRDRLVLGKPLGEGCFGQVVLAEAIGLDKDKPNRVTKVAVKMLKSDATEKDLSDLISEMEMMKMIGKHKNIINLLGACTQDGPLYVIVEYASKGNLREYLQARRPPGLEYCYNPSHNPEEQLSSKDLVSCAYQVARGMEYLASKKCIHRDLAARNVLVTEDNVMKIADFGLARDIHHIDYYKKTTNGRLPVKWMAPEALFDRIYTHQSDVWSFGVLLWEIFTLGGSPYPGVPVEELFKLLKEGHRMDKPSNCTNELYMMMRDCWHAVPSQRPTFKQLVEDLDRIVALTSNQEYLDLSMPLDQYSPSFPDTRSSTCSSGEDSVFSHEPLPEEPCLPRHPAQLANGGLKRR

EPHB1 = EPHB1 (UniProt P54762); test: as above
EPHB1, sequence (P54762 whole entry, looked up): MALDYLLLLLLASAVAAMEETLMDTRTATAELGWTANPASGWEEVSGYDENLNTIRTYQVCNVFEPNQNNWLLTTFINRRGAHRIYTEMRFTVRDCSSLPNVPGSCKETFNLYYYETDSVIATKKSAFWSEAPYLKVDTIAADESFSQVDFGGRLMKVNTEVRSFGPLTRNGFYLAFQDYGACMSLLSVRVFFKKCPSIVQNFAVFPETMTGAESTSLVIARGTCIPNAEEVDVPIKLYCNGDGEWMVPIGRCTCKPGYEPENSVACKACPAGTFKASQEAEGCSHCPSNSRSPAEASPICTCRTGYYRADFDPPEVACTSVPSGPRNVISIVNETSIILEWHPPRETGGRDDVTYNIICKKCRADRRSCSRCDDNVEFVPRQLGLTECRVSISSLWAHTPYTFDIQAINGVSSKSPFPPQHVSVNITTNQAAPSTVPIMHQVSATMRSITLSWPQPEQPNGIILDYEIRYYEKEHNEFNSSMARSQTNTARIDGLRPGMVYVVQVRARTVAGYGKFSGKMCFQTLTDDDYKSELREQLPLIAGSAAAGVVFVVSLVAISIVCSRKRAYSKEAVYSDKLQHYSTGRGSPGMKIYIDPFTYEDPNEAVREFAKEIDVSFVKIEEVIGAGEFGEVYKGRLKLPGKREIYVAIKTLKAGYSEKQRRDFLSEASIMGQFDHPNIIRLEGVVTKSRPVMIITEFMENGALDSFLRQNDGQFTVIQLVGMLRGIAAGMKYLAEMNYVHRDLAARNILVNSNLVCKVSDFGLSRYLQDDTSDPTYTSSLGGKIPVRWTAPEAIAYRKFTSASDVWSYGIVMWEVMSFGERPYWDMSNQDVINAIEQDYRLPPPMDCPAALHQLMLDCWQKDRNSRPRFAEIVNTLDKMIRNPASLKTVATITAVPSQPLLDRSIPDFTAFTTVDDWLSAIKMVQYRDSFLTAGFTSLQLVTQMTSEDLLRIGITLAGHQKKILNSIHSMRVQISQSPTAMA

Fes = Fes (UniProt P07332); test: as above
Hck = Hck (UniProt P08631); test: as above
Hck, sequence (P08631 whole entry, looked up): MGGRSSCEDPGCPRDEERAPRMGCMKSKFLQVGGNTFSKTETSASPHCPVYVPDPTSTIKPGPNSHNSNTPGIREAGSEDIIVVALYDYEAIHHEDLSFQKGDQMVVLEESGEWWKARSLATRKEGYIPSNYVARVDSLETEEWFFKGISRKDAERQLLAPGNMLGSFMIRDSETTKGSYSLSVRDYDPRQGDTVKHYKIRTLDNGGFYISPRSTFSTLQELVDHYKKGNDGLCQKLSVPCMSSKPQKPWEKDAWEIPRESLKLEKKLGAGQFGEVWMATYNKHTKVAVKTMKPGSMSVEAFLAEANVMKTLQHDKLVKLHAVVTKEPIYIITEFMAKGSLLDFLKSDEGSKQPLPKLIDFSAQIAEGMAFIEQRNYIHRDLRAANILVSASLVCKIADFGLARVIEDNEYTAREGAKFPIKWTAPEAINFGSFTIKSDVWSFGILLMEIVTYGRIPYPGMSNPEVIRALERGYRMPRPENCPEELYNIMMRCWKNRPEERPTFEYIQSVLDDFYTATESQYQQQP

FGFR3 = FGFR3 (UniProt P22607); test: as above
FGFR3, sequence (P22607 whole entry, looked up): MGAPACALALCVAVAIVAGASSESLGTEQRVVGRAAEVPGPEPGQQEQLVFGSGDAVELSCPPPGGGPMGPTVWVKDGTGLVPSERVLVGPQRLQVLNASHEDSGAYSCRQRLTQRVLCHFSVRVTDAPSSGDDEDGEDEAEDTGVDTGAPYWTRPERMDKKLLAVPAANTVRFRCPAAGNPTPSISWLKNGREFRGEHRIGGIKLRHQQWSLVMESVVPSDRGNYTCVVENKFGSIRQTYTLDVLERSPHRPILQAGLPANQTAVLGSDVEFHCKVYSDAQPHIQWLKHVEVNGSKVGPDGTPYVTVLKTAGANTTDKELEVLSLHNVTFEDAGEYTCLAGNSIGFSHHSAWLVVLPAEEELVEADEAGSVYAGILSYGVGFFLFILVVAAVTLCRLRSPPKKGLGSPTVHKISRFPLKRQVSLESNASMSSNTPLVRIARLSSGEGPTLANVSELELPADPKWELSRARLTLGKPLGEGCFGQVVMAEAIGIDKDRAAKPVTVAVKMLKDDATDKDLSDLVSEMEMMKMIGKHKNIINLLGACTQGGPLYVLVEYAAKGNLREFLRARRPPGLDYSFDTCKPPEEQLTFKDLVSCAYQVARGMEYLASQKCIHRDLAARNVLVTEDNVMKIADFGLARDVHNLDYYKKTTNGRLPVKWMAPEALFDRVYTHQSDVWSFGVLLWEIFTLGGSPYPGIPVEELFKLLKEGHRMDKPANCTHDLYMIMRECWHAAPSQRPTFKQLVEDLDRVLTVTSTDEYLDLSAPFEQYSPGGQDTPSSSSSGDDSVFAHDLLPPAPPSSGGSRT

c-Src = test: as above
EPHB2 = EPHB2 (UniProt P29323); test: as above
Fer (mouse) = test: as above
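Throughout, for SH2 binding enrichment of the phosphorylated peptide, bacterial display: peptide library displayed on the E. coli surface as eCPX fusions, selected cells deep-sequenced, score is each peptide's frequency after selection divided by its frequency in the input.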
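Throughout, for phosphorylation enrichment, bacterial display: 11-residue human phosphosite peptides and single-mutation variants displayed on the E. coli surface, counted by deep sequencing, each peptide's frequency after selection divided by its frequency in the unselected input library; frequency after pTyr selection over input frequency; kinase dosed for 20-30% of maximal phosphorylation in three min.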

SH2 binding enrichment (SHP2-C SH2) | SH2 binding enrichment (Grb2 SH2) | SH2 binding enrichment (c-Src SH2) | Sequence | phosphorylation enrichment (Jak2) | phosphorylation enrichment (Fyn) | phosphorylation enrichment (c-Abl (mouse)) | phosphorylation enrichment (AncSZ) | phosphorylation enrichment (MERTK) | phosphorylation enrichment (FGFR1) | phosphorylation enrichment (EPHB1) | phosphorylation enrichment (Fes) | phosphorylation enrichment (Hck) | phosphorylation enrichment (FGFR3) | phosphorylation enrichment (c-Src) | phosphorylation enrichment (EPHB2) | phosphorylation enrichment (Fer (mouse))
1.11 | 0.947 | 0.533 | DFTEAYNPKIK [CLK1_Y305_YF] | 0.988 | 0.453 | 0.893 | 0.874 | 0.501 | 0.464 | 0.509 | 1.11 | 0.505 | 0.649 | 0.571 | 0.572 | 0.466
0.625 | 0.792 | 0.533 | DFNPNYCFAGK [ALK_Y1096_YF] | 1.21 | 0.549 | 0.921 | 1.67 | 1.04 | 0.742 | 1.72 | 1.28 | 0.444 | 0.887 | 0.684 | 0.989 | 0.742
0.859 | 0.97 | 0.518 | GPIFRYDLGGA [CYP11B1_Y81] | 0.568 | 0.45 | 0.497 | 0.777 | 0.345 | 0.432 | 0.478 | 0.822 | 0.357 | 0.433 | 0.394 | 0.431 | 0.466
0.924 | 0.882 | 0.481 | GKVADYIPQLA [GLS_Y249] | 0.5 | 0.514 | 0.483 | 0.634 | 0.396 | 0.478 | 0.51 | 0.684 | 0.408 | 0.538 | 0.349 | 0.477 | 0.453
0.773 | 0.859 | 0.481 | DGQFVYKLTDF [TBK1_Y153_S151F] | 0.799 | 2.44 | 0.482 | 1.06 | 0.366 | 0.498 | 0.467 | 1.01 | 0.832 | 0.649 | 2.32 | 0.587 | 0.739
0.564 | 0.802 | 0.455 | RRGFLYDSDEE [MCM2_Y137_L135F] | 0.812 | 0.512 | 0.679 | 0.629 | 0.589 | 0.429 | 0.397 | 0.761 | 0.764 | 0.458 | 0.625 | 0.686 | 0.501
0.938 | 0.997 | 0.638 | SASWTYVRWFD [PTDSS1_Y274_P269S] | 1.22 | 0.501 | 0.905 | 1.08 | 0.445 | 0.677 | 0.835 | 1.26 | 0.64 | 0.854 | 0.626 | 0.766 | 0.487
0.834 | 0.708 | 1 | VARAVYQAVLS [SMG1_Y549_H546R] | 0.722 | 1.07 | 0.75 | 0.999 | 0.758 | 0.468 | 0.526 | 0.97 | 2.26 | 0.585 | 1.36 | 0.567 | 1.33
0.827 | 1.05 | 1.11 | EKFVPYFDLFM [IPO5_Y530_YF] | 1.32 | 0.57 | 0.858 | 1.33 | 0.444 | 1.74 | 1.06 | 1.35 | 0.581 | 1.71 | 0.596 | 0.652 | 0.608
0.794 | 1.13 | 0.831 | QSSALYEDCFL [ASS1_Y83_R86C_YF] | 1.96 | 3.02 | 1.15 | 1.92 | 4.12 | 0.852 | 10.4 | 2.83 | 2.28 | 0.785 | 4.69 | 7.25 | 16.4
0.835 | 0.621 | 0.622 | LHAALYERKLL [TTLL5_Y542] | 1.04 | 1.12 | 0.934 | 1.43 | 0.544 | 0.896 | 1.27 | 1.91 | 0.772 | 1.13 | 0.479 | 0.798 | 0.63
1.25 | 1.16 | 0.999 | RLLRGYDQFAF [HLA-B_Y137_H137Y_YF] | 0.785 | 0.591 | 0.798 | 0.885 | 0.645 | 0.617 | 0.505 | 1.21 | 0.664 | 0.627 | 0.542 | 0.725 | 0.696
0.824 | 0.952 | 0.656 | DILASYLDKVR [KRT12_Y139_R135I] | 0.505 | 0.457 | 0.37 | 0.54 | 0.364 | 0.407 | 0.364 | 0.96 | 0.403 | 0.594 | 0.375 | 0.437 | 0.284
0.552 | 0.719 | 0.403 | ADRAAYLQNLN [MYH1_Y389_K386R] | 0.604 | 0.336 | 0.679 | 0.604 | 0.362 | 0.629 | 0.563 | 0.699 | 0.334 | 0.441 | 0.42 | 0.338 | 0.364
0.907 | 0.831 | 3.03 | VPANRYDLLCL [FARSB_Y72] | 0.873 | 0.469 | 0.773 | 0.808 | 0.514 | 0.493 | 0.58 | 0.985 | 0.458 | 0.725 | 0.487 | 0.654 | 0.486
0.398 | 0.807 | 0.478 | QMEKIYTQQIQ [CCNB1IP1_Y125] | 1.07 | 0.663 | 1.03 | 1.12 | 1.19 | 0.673 | 0.747 | 1.06 | 0.628 | 0.5 | 1.55 | 0.466 | 0.651
0.583 | 0.699 | 0.427 | FADIAYNYRRG [PAH_Y166_H170R] | 0.529 | 0.466 | 0.502 | 0.638 | 0.429 | 0.39 | 0.493 | 0.702 | 0.452 | 0.449 | 0.511 | 0.458 | 0.329

SH2 binding enrichment (SHP2-C SH2) | SH2 binding enrichment (Grb2 SH2) | SH2 binding enrichment (c-Src SH2) | Sequence | phosphorylation enrichment (Jak2) | phosphorylation enrichment (Fyn) | phosphorylation enrichment (c-Abl (mouse)) | phosphorylation enrichment (AncSZ) | phosphorylation enrichment (MERTK) | phosphorylation enrichment (FGFR1) | phosphorylation enrichment (EPHB1) | phosphorylation enrichment (Fes) | phosphorylation enrichment (Hck) | phosphorylation enrichment (FGFR3) | phosphorylation enrichment (c-Src) | phosphorylation enrichment (EPHB2) | phosphorylation enrichment (Fer (mouse))
0.92 | 0.843 | 0.521 | KSLFHHRQFSA [CPS1_Y1491_Y1491H_YF] | 0.407 | 0.403 | 0.431 | 0.448 | 0.36 | 0.353 | 0.418 | 0.543 | 0.297 | 0.373 | 0.279 | 0.295 | 0.297
2.18 | 0.984 | 0.825 | SRPTQYSSFAC [SPEM2_Y104_S108A] | 0.733 | 0.563 | 0.736 | 0.66 | 0.519 | 0.482 | 0.362 | 0.727 | 0.511 | 0.533 | 0.665 | 0.494 | 0.435
0.647 | 0.67 | 0.63 | DMGAQYAAASP [ARID1B_Y483] | 0.653 | 0.411 | 0.652 | 0.647 | 0.434 | 0.48 | 0.486 | 0.71 | 0.462 | 0.584 | 0.504 | 0.552 | 0.652
0.976 | 1.07 | 0.585 | ERCAQYKKDVA [ALDOA_Y138_G142V] | 0.65 | 0.596 | 0.624 | 0.726 | 0.385 | 0.579 | 0.527 | 1.05 | 0.525 | 0.604 | 0.491 | 0.607 | 0.45
0.657 | 0.945 | 0.595 | LDLSFYTTSSS [EMD_Y182_P183T_YF] | 2.49 | 0.93 | 2.47 | 2.23 | 0.897 | 1.12 | 1.04 | 2.65 | 0.999 | 1.53 | 0.785 | 1.29 | 0.882
1.81 | 1.64 | 2.61 | VYYGSYSRPYG [NKAP_Y104] | 2.87 | 9.54 | 8.1 | 1.19 | 6.16 | 2.77 | 1.7 | 0.756 | 8.09 | 2.01 | 7.11 | 2.66 | 0.835
0.963 | 0.835 | 0.599 | FNVLQYVVPEV [EIF3A_Y382] | 1.55 | 0.629 | 5.16 | 1.88 | 1.99 | 2.06 | 0.933 | 1.32 | 0.635 | 1.85 | 0.58 | 1.02 | 0.701
0.697 | 1.06 | 0.972 | SFVVRYNQPRV [GRIN2D_Y736_M733V_YF] | 0.794 | 0.483 | 0.663 | 1.01 | 0.366 | 0.499 | 0.559 | 1.1 | 0.515 | 0.608 | 0.377 | 0.517 | 0.49
0.639 | 0.939 | 0.622 | AYQGKYTPSGQ [ALDOA_Y343_C339Y] | 0.545 | 0.262 | 0.384 | 0.383 | 0.337 | 0.316 | 0.388 | 0.441 | 0.309 | 0.375 | 0.35 | 0.299 | 0.345
0.579 | 0.9 | 0.712 | SDGHEYIYVDR [PDGFRB_Y579_P584R] | 1.01 | 1.11 | 0.513 | 1.33 | 0.514 | 2.04 | 0.663 | 0.995 | 1.12 | 1.43 | 1.6 | 0.645 | 0.514
0.5 | 0.799 | 0.357 | EQMLEYMEQLQ [CFAP45_Y289] | 1.1 | 0.549 | 0.532 | 1.21 | 0.494 | 0.764 | 0.579 | 0.994 | 0.638 | 0.846 | 0.505 | 0.561 | 0.526
1.15 | 0.798 | 0.471 | KLFYIYTPGTT [SLC27A4_Y245_S247P] | 1.43 | 0.404 | 0.784 | 1.25 | 1.66 | 0.753 | 0.666 | 1.17 | 0.527 | 0.899 | 0.58 | 0.584 | 0.594
0.392 | 0.905 | 0.697 | HLELNYKEDEF [MME_Y502_Y497H_YF] | 0.903 | 0.557 | 0.749 | 0.993 | 0.589 | 1.08 | 0.594 | 0.967 | 0.565 | 1.48 | 0.43 | 0.504 | 0.64
2 | 1.75 | 3.02 | ISKILYHIIKG [CDH17_Y489_S484I] | 0.783 | 0.449 | 0.601 | 0.779 | 1.11 | 0.651 | 0.679 | 0.823 | 0.508 | 0.601 | 0.551 | 0.535 | 0.379
0.381 | 1.21 | 0.732 | IRKDLYANNVM [ACTA1_Y296] | 0.772 | 0.488 | 0.576 | 0.559 | 0.413 | 0.447 | 0.605 | 0.863 | 0.572 | 0.588 | 0.419 | 0.527 | 0.436
0.481 | 0.73 | 0.483 | QKKEEYKMALF [F8_Y1990_R1985Q_YF] | 0.552 | 0.421 | 0.774 | 0.736 | 0.811 | 0.716 | 0.645 | 0.866 | 0.561 | 0.509 | 0.37 | 0.48 | 0.498
